From publication PMC2481429

target: U2AF65 (Homo sapiens) (UniProt P26368); experiment: EMSA; conditions: Gel shift with constant 5'-32P RNA and varying U2AF65, triplicate; buffer, salt, pH and temperature not given (as previously described, ref 49)
Sequence (P26368 whole entry, one chain of several): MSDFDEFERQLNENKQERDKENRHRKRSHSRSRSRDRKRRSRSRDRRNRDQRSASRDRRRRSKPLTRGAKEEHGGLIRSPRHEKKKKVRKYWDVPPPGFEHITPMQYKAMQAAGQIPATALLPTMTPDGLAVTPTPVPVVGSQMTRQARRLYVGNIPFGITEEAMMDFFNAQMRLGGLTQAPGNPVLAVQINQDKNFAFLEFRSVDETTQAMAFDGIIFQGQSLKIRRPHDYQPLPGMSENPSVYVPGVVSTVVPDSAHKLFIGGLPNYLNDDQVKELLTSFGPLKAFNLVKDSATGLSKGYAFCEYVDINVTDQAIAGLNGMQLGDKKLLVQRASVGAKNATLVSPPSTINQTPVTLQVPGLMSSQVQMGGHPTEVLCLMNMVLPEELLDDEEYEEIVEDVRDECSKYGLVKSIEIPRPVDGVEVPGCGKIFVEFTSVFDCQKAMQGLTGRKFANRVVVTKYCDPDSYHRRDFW

In order of rising Kd:
1. UAAUUCUUUUUUUCUUUCUGCCCUAG [SR140 intron 9 PY tract]  30 nM
2. UCACCACUCCUUUCUCUUUCAUUCAG [U2AF2 intron 6 PY tract]  80 nM
3. GCCCUGACCCCUUUUUUUUGCUGCAG [LCATmut intron 4 PY tract]  120 nM
4. UUCGUGCUGACCCUGUCCCUUUUUUUUCCACAGCUGCA [ADML PY tract]  120 nM
5. GCCCUGACCCCUUCCACCCGCUGCAG [LCAT intron 4 PY tract]  1900 nM
6. CCGCCCACCCCCUCCCCUCACCGCAG [BRUNOL4 intron 9 PY tract]  3400 nM
7. CAAAGGCGUUGGUUUUGUUUCCACAG [INSR intron 10 PY tract]  8800 nM
8. UUCGUGCUGACCCUGUCCCGUAUUAGUCCACAGCUGCA [ADMLmut PY tract]  15800 nM

same assay, conditions: estimated (asterisk), saturation not reached; Gel shift with constant 5'-32P RNA and varying U2AF65, triplicate; buffer, salt, pH and temperature not given (as previously described, ref 49)

Sequence “CCCUGGCUCACUCCCCUGCCCUGCAG [ITGB4 intron 31 PY tract]” has a Kd of 52000 nM.

same assay, conditions: estimated (asterisk); no detectable binding at concentrations tested; Gel shift with constant 5'-32P RNA and varying U2AF65, triplicate; buffer, salt, pH and temperature not given (as previously described, ref 49)

“CAUGUGCUCGCUGCCUGCUAAUUAAG [MBNL1 intron 6 PY tract]” gave a Kd of 100000 nM.
